What was measured:
[1] = target: T1, Soluble IGF-1R (sIGF-1R), R&D Systems Cat. # 391-GR/CF (UniProt P08069 31-935, limits assumed); assay: phage ELISA
T1 construct: extracellular domain

[2] = target: T2, soluble human insulin receptor-immunoglobulin heavy chain chimera (sIR-Fc; Bass et al., 1996) (human, UniProt P06213 28-956, limits assumed); assay: phage ELISA
T2 construct: extracellular domain; also called soluble IR (Bass construct); not shown: immunoglobulin heavy chain constant domains

Binder | IGF-1R/IR comparison [1] | Ratio over Background [1] | IR/IGF-1R comparison [2] | Ratio over Background [2]
GAPVDQLHEDFYDWFVRQVSQAATG [H2CA-2-B2-IGFR] | 3.5 | 3.4 | 0.3 | 1
VERSASSQDGNFYDWFVVQIR [A6S-2-D1-IR] | 2.6 | 30.6 | 0.4 | 12
EAASLGSQDRNFYDWFVRQVV [A6S-2-D11-IR] | 2.8 | 37.4 | 0.4 | 13.5
PVGVQGFYEGLSRLVLGRGGW [20E2B-4-F8-IGFR] | 9.7 | 7.3 | 0.1 | 0.8
GFREGSFYDWFQAQVT [E4Dα-2-D11-IR] | 3.4 | 11.1 | 0.3 | 3.3
DRDFCRFYERLTALVGGQVDGGWPC [20C-3-F6-IGFR] | 14.1 | 26.1 | 0.1 | 1.9
RLFYCGIQALGANLGYSGCV [R20α-4-20A12-IR] | 16.6 | 39.9 | 0.1 | 2.4
FRTLAAQHDSFYDWFDRQVSGAAGER [H2CA-3-C11-IGFR] | 2.1 | 3.3 | 0.5 | 1.6
RGQSDAFYSGLWALIGLSDG [R20β-4-A6-IR] | 17.3 | 25.9 | 0.1 | 1.5
PDLHKGFYAQLAQLIRGQLLS [20E2B-3-E3-IGFR] | 13.1 | 16.3 | 0.1 | 1.3
VGYQGQGDENFYDWFIRQVSGRLGVQ [H2CA-4-F5-IGFR] | 12.3 | 9.7 | 0.1 | 0.8
KLHNLMFYYGLQRLVWGAGLG [20E2B-4-H3-IGFR] | 13.9 | 14.8 | 0.1 | 1.1
RCEEKQAEVGPSSDPFYHKMSELLGCR [B6Hα-3-E9-IR] | 14.2 | 24.2 | 0.1 | 1.7
AICDAGFHEHFYDWFALQVSDCGRQS [H2CA-2-B11-IGFR] | 3 | 4.6 | 0.3 | 1.6
RGCNDDGGKGWSDDPFYHKLSELICGG [B6Hα-1-A2-IR] | 14.6 | 14.6 | 0.1 | 1
GVRAMSFYDALVSVLGLGPSG [20E2B-1-A6-IGFR] | 16.8 | 18.1 | 0.1 | 1.1
TFYSCLASLLTGTPQPNRGPWERCR [20C-3-G3-IGFR] | 27 | 32.3 | < 0.1 | 1.2
TSEVQRRSQDNFYDWFVAQVA [A6S-3-E2-IR] | 2.5 | 24.7 | 0.4 | 9.8
IQQELTFYDLLHRLVRSELGS [20E2B-3-D2-IGFR] | 11.7 | 12.4 | 0.1 | 1.1
CCTTEMVVMDARDDPFYHKLSELVTGG [B6Hα-1-B5-IR] | 20.5 | 20.5 | 0 | 1

Binder | IGF-1R/IR comparison [1] | Ratio over Background [1] | IR/IGF-1R comparison [2] | Ratio over Background [2]
GGTEVDFYRALERLVRGQLGL [20E2B-3-D8-IGFR] | 11.3 | 17.7 | 0.1 | 1.6
FYDAIDQLVRGSARAGGTRD [R20α-3-20E2-IR] | 12.9 | 39.9 | 0.1 | 3.1
LGYQEPFQQNFYDWFVRQVSGAENAG [H2CA-3-E8-IGFR] | 2.9 | 6.3 | 0.3 | 2.2
RGMKEEVLVGGSTDPFYHKLSELLQGS [B6Hα-3-F11-IR] | 11.7 | 18.7 | 0.1 | 1.6
VEGRGLFYDLLRQLLARRQNG [20E2B-3-C6-IGFR] | 14.8 | 16.8 | 0.1 | 1.1
YRGMLVLGRSSDGAGKVAFERPARIGQTVFAVNFYDWFV [A6L-0-E6-IR] | 17 | 31 | 0.1 | 1.8
YRGMLVLGRISGGAGKAASERPARIGQKVSAVNFYDWFV [A6L-0-H3-IR] | 13 | 26 |  | 
RGAVAGFHDQFYDWFDRQVSRVHKFG [H2CA-4-H9-IGFR] | 3 | 5.6 |  | 
FFYDCLAALLQGVARYHDLCAVEIT [20C-4-C7-IGFR] | 21.8 | 28 | < 0.1 | 1.3
DRAFYNGLRDLVGAVYGAWD [R20α-4-20C11-IR] | 10.3 | 30.8 | 0.1 | 3
SQAGSAFYAWFDQVLRTVHSA [20E2Bβ-4-G6-IR] | 3.3 | 6.2 | 0.3 | 1.9
VGRASGFPENFYDWFGRQLSLQSGEQ [H2CA-4-H6-IGFR] | 14.6 | 10.5 | 0.1 | 0.7
GNGDGMFYQLLSLLVGRDMHV [20E2B-3-02-IGFR] | 13.8 | 8.9 | 0.1 | 0.6
LRIANLFYQRLWDLAFGGGG [20E2B-3-E8-IGFR] | 11.1 | 16.7 | 0.1 | 1.5
LQPCSGFYECIERLIGVKLSG [20E2Bβ-4-G7-IR] | 15.8 | 25.2 | 0.1 | 1.6
SSYGCDGFYLMLFSLGLVASQELEC [20C-3-A1-IGFR] | 13.7 | 20.8 | 0.1 | 1.5
QGGSASFYDAIDRLLRMRIGG [20E2A-4-F11-IGFR] | 14.6 | 18.8 | 0.1 | 1.3
LKDGFYDYFWQRLHLGS [NNRPγ-4-B11-IR] | 15.5 | 18.7 | 0.1 | 1.2
YSCGDGFYSLLSDLLGGQFRC [20E2B-4-H12-IGFR] | 12.8 | 9.7 | 0.1 | 0.8
HLADGQFHEKFYDWFERQISSRCNDC [H2CA-3-E11-IGFR] | 2.2 | 2.2 | 0.5 | 1

From US20070265189A1 (published 2007)
